Reference: patent US20240116985A1 (published 2024)
Starred links: 1 amine or outer side, 2 acyl side, 3 side chain; linkers in the order of their positions; H or OH if unused. Positions of bridges follow the written chain, without caps; N, C: chain ends. Non-standard residues stand in square brackets, D forms with d. Primed or numbered codes have the meaning given here. No end group written: not given here. *: point of attachment. PyrS2″ = (S)-3-amino-1-((pent-4-en-1-yloxy)carbonyl)pyrrolidine-3-carboxylic acid (stapling residue), C=CCCCOC(=O)N1CC[C@@](N[*:1])(C(=O)[*:2])C1; B5(4) = 2,2-bis(4-pentenyl)glycine = 2-amino-2-(pent-4-en-1-yl)hept-6-enoic acid (stitching residue), C=CCCCC(CCCC=C)(N[*:1])C(=O)[*:2]; TfeGA = (S)-2-amino-3-((carboxymethyl)(2,2,2-trifluoroethyl)amino)propanoic acid, O=C([C@H](CN(CC(=O)[*:3])CC(F)(F)F)N[*:1])[*:2]; PyrS2 = (S)-3-amino-1-((pent-4-en-1-yloxy)carbonyl)pyrrolidine-3-carboxylic acid, C=CCCCOC(=O)N1CC[C@@](N[*:1])(C(=O)[*:2])C1; B5(22) = 2-amino-2-(pent-4-en-1-yl)hept-6-enoic acid (two alkene side chains), C=CCCCC(CCCC=C)(N[*:1])C(=O)[*:2]; B5(3) = 2,2-bis(4-pentenyl)glycine (stitching residue), C=CCCCC(CCCC=C)(N[*:1])C(=O)[*:2]; B5 = 2-amino-2-(pent-4-en-1-yl)hept-6-enoic acid, C=CCCCC(CCCC=C)(N[*:1])C(=O)[*:2]; Phe(3-COOH) = N[C@@H](Cc1cccc(C(=O)O)c1)C(=O)O; 2F3MeF = Cc1cccc(C[C@H](N[*:1])C(=O)[*:2])c1F; Phe(2-CF3) = N[C@@H](Cc1ccccc1C(F)(F)F)C(=O)O; Phe(2-CN) = N#Cc1ccccc1C[C@H](N)C(=O)O; Phe(2-Cl) = N[C@@H](Cc1ccccc1Cl)C(=O)O; Bta = N[C@@H](Cc1csc2ccccc12)C(=O)O; αAllylPro = C=CC[C@@]1(C(=O)O)CCCN1; tBuAla = CC(C)(C)C[C@H](N)C(=O)O; 3Thi = N[C@@H](Cc1ccsc1)C(=O)O; PyrS2(4) = not defined here; Ms = CS(=O)(=O)*

T1: B-cat-Halo (beta-catenin HaloTag NanoBRET construct expressed in HEK293 cells) (UniProt P35222 1-781, HaloTag NanoBRET 618 Ligand bound to the HaloTag)
T1 sequence (looked up): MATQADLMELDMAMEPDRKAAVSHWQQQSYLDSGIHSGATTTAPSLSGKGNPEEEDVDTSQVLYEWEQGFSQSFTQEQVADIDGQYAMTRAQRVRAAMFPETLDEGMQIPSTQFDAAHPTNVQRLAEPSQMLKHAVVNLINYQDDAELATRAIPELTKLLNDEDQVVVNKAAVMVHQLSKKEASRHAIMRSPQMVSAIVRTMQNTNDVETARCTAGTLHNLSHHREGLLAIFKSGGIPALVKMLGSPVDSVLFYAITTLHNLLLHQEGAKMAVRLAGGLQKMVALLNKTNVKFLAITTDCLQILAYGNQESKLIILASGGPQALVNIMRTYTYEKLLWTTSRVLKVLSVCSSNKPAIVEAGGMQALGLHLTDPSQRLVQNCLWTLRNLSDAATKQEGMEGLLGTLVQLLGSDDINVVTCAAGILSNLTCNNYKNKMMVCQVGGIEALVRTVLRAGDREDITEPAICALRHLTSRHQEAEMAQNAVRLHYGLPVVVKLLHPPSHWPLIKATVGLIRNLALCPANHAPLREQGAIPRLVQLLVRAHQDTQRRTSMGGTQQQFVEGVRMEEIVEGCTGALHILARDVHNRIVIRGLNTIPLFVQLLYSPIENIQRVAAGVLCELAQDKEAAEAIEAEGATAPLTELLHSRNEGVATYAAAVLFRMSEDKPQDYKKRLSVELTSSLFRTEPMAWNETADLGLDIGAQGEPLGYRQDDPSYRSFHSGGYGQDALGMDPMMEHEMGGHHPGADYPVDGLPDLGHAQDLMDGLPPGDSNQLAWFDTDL

T2: B-cat-Halo (beta-catenin HaloTag fusion expressed in HEK293 cells) (UniProt P35222 1-781)
T2 sequence (looked up): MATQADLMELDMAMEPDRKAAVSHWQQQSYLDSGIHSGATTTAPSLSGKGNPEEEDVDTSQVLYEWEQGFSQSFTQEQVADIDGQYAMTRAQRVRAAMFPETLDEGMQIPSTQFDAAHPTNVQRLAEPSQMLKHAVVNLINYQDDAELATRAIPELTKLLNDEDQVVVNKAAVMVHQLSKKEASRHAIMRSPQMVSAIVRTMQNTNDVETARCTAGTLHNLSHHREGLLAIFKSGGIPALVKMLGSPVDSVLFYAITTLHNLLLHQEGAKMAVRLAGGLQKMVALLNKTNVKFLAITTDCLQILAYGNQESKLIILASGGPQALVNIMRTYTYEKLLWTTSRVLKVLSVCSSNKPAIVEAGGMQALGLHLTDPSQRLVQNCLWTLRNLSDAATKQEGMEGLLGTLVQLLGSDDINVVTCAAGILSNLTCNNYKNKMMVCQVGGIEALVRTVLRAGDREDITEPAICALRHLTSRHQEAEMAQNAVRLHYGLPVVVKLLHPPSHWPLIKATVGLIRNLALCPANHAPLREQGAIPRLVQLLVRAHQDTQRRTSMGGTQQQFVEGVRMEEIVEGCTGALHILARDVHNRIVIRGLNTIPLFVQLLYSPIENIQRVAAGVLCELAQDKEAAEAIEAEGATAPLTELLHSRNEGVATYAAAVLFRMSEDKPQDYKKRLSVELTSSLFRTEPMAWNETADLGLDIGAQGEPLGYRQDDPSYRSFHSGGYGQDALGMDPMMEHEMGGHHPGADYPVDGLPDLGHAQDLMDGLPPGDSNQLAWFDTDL

T3: beta-catenin (in DLD1 TCF/LEF luciferase reporter cells) (UniProt P35222 1-781)
T3 sequence (looked up): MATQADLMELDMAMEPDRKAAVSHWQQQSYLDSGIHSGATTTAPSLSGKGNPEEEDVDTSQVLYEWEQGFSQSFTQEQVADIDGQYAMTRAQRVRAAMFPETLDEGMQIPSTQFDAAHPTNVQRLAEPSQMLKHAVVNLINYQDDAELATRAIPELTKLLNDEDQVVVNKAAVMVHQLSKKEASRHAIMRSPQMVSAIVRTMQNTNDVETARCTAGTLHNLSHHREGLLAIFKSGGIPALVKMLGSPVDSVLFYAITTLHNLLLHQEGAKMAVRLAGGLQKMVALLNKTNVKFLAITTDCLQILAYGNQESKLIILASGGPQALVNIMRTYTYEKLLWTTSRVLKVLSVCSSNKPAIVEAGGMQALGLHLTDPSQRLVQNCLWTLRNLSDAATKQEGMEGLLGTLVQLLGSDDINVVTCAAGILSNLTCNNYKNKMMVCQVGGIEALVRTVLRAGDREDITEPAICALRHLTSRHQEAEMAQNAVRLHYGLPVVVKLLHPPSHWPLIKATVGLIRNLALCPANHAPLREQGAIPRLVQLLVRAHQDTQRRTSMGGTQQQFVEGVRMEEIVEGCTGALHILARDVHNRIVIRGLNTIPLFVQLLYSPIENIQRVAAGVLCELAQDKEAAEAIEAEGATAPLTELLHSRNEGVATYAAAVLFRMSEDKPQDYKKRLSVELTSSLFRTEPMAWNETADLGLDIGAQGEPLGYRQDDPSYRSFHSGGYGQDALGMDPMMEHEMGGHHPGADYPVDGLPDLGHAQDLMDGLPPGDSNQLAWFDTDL


Target: T1, B-cat-Halo (beta-catenin HaloTag …)
Assay: cell-based or functional assay

NanoBRET Abs IC50 [µM] | Binder
25.1 | Ac-[αAllylPro]D[tBuAla][B5(22)]DDAAFN[PyrS2][3Thi][Bta]QK-NH2 (staple 1-4, 4-11) [I-939]

Target: T2, B-cat-Halo (beta-catenin HaloTag fusion …)
Assay: cell-based or functional assay

Binder | NanoBRET Abs IC50 [µM]
Ac-[αAllylPro]D[tBuAla][B5(3)]NDAAFL[PyrS2″][3Thi][Bta]Q-NH2 (staple 1-4, 4-11) [Ac-PL3-Asp-Npg-B5-Asn-Asp-Ala-Ala-Phe-Leu-PyrS2-3Thi-BztA-Gln-NH2] | 7.5
Ac-[αAllylPro]N[tBuAla][B5(3)]DDAAFL[PyrS2″][3Thi][Bta]Q-NH2 (staple 1-4, 4-11) [Ac-PL3-Asn-Npg-B5-Asp-Asp-Ala-Ala-Phe-Leu-PyrS2-3Thi-BztA-Gln-NH2] | 23.4
Ac-[αAllylPro]N[tBuAla][B5(3)]DDAAFN[PyrS2″][3Thi][Bta]Q-NH2 (staple 1-4, 4-11) [Ac-PL3-Asn-Npg-B5-Asp-Asp-Ala-Ala-Phe-Asn-PyrS2-3Thi-BztA-Gln-NH2] | 17.3
Ac-[αAllylPro]D[tBuAla][B5(3)]NDAAFN[PyrS2″][3Thi][Bta]Q-NH2 (staple 1-4, 4-11) [Ac-PL3-Asp-Npg-B5-Asn-Asp-Ala-Ala-Phe-Asn-PyrS2-3Thi-BztA-Gln-NH2] | 27.8
Ac-[αAllylPro]D[tBuAla][B5(3)]DDAAFL[PyrS2″][Phe(2-CN)][Bta]Q-NH2 (staple 1-4, 4-11) [Ac-PL3-Asp-Npg-B5-Asp-Asp-Ala-Ala-Phe-Leu-PyrS2-2CNF-BztA-Gln-NH2] | 10

Now from value to binder:

NanoBRET Abs IC50 [µM] | Binder
> 20 | Ms-[αAllylPro]D[tBuAla][B5(3)]D[TfeGA]AAFN[PyrS2″][3Thi][Bta]Q-NH2 (staple 1-4, 4-11) [MeSO2-PL3-Asp-Npg-B5-Asp-TfeGA-Ala-Ala-Phe-Asn-PyrS2-3Thi-BztA-Gln-NH2]
> 20 | Ms-[αAllylPro]D[tBuAla][B5(3)]DDAAFN[PyrS2″][3Thi][Bta]Q-NH2 (staple 1-4, 4-11) [MeSO2-PL3-Asp-Npg-B5-Asp-Asp-Ala-Ala-Phe-Asn-PyrS2-3Thi-BztA-Gln-NH2]

Target: T3, beta-catenin (in DLD1 TCF/LEF …)
Assay: cell-based or functional assay

Binder | DLD1 4% Abs IC50 [µM]
[αAllylPro]D[tBuAla][B5(4)]D[Phe(3-COOH)]AAFL[PyrS2″][Phe(2-Cl)][Bta]Q-NH2 (staple 1-4, 4-11) [I-1332] | 0.9
[αAllylPro]D[tBuAla][B5(4)]D[Phe(3-COOH)]AAFL[PyrS2(4)][2F3MeF][Bta]Q-NH2 (staple 1-4, 4-11; not fully specified; reading uncertain) [I-1335] | 0.9
[αAllylPro]D[tBuAla][B5]D[Phe(3-COOH)]AAFL[PyrS2][Phe(2-CF3)][Bta]S-NH2 (staple 1-4, 4-11) [I-1336] | 0.7
[αAllylPro]D[tBuAla][B5]D[Phe(3-COOH)]AAFL[PyrS2][Phe(2-Cl)][Bta]S-NH2 (staple 1-4, 4-11) [I-1333] | 1.2

Other lines, results leading:

DLD1 4% Abs IC50 [µM] | Binder
3.2 | [αAllylPro]D[tBuAla][B5(4)]D[Phe(3-COOH)]AAFF[PyrS2″][Phe(2-CF3)][Bta]Q-NH2 (staple 1-4, 4-11) [I-1341]
3.4 | [αAllylPro]D[tBuAla][B5(4)]D[Phe(3-COOH)]AAFF[PyrS2″][Phe(2-Cl)][Bta]Q-NH2 (staple 1-4, 4-11) [I-1338]
